In the assay the target is PA-63 (Bacillus anthracis, UniProt P13423 197-764).
Chain of PA-63 (P13423 197-764 limits assumed): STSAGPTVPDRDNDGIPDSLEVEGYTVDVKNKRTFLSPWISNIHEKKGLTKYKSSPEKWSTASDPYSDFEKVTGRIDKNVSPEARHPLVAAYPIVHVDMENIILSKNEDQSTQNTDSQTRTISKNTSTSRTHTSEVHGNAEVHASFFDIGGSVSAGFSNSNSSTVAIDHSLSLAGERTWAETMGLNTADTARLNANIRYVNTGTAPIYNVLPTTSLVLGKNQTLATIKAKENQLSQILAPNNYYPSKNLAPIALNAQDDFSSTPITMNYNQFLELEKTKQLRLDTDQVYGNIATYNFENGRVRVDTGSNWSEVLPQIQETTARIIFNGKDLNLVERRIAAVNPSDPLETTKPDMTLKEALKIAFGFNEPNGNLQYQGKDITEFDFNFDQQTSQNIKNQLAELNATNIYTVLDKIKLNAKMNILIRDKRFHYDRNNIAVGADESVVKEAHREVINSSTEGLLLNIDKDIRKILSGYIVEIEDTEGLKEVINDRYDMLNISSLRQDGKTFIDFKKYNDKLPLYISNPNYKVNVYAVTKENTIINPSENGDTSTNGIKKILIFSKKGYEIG

B1: YMB2 IgG (antibody, V domains shown)
VH: EVQLQQSGAELVKPGASVKLSCTASGFNIKDTYMHWVKQRPEQGLEWIGRIDPENGNTKYDPKFQGKATITADTSSNTAYLQLSSLTSEDTAVYYCARFLITTGYFDYWGQGTTLTVSS
VL: DIVLTQSHKFMSTSVGDRVSITCKASQDVGTAVAWYQQKPGQSPKLLIYWASTRHTGVPDRFTGSGSGTDFTLTISNVQSEDLADYFCQQYSSYPLTFGAGTKLEIKR
One may read the Kd as the constant that tells how readily two partners part at equilibrium. Read a low Kd as a tighter complex. As usually defined, the koff is the rate constant with which the complex falls apart. For orientation: kon means the second-order rate constant of association. A lower kon goes with slow association. In the case of B1, the equilibrium dissociation constant (Kd) stood at 437 nM, the dissociation rate constant (koff) was found to be 0.014 s⁻¹ and the kon is 32000 M⁻¹ s⁻¹.

B2: YMF10 IgG (antibody, V domains shown)
VH: EVQLQQSGAELVRSGASVKLSCTASGFNIKDYYMHWVKQRPEQGLEWIGWIDPENGDTEYAPKFQGKATMSADTSSNTAYLQLSSLTSEDTAVYYCNAGTPFEGLRRADYWGQGTTLTVSS
VL: DIVMTQSHKFMSTSVGDRVSITCKASQDVGTAVAWYQQKPGQSPKLLIYWASTRHTGVPDRFTGSGSGTDFTLTISNVQSEDLADYFCQQYSSYPLTFGAGTKLELNR
For the molecule B2, the Kd was 31 nM, the koff is 0.015 s⁻¹ and the kon was 490000 M⁻¹ s⁻¹.

B3: YMD1 IgG (antibody, V domains shown)
VH: EVQLVESGAELVRSGASVKLSCTASGFNIKDYYMHWVKQRPEQGLEWIGWIDPENGDTEYAPKFQGKATMTADTSSNTAYLQLSSLTSEDTAVYYCNAGTPFEGLRKADYWGQGTTLTVSS
VL: DIVMTQSHKLMSTSVGDRVSITCKASQDVGTAVAWYQQKPGQSPRLLIYWASTRHTGVPDRFTGSGSGTDFTLTITNVQSEDLADYFCQQYSSYPYTFGGGTKLEIKR
Take B3: binding was characterised by a dissociation constant (Kd) of 55 nM, the koff came out at 0.019 s⁻¹ and the kon worked out at 350000 M⁻¹ s⁻¹.

The values are drawn from patent US20130303393A1 (RESEARCH DEVELOPMENT FOUNDATION, published 2013).
